What was measured:
Test in all cases: SEC; FPLC of native protein with His-tag cleaved; HiLoad-16/60 Superdex200, 1 x PBS, 4°C, 1 ml/min; column calibrated with catalase, aldolase, chymotrypsinogen A and ribonuclease A
[1] = biological target: ratiometric pHluorin (Aequorea victoria)
[2] = biological target: ecliptic pHluorin (Aequorea victoria)
[3] = biological target: GFP from the orange seapen Ptilosarcus gurneyi (Pt-GFP) (Ptilosarcus gurneyi)

ratiometric pHluorin showed a stoichiometry N [1] of 2.
In the case of ecliptic pHluorin, the stoichiometry N [2] is reported as 2.
“GFP from the orange seapen Ptilosarcus gurneyi (Pt-GFP) (natural protein)” was tested, and the stoichiometry N [3] was 4.

From paper PMC1475855
